We go through 9 molecules from patent US9073974B2, “RGD-containing cyclic peptides” (The Regents of the University of California, priority 2009, dated 2015).

Test [1] deals with T1, αvβ3 integrin (human), P06756.
T1 chain 1: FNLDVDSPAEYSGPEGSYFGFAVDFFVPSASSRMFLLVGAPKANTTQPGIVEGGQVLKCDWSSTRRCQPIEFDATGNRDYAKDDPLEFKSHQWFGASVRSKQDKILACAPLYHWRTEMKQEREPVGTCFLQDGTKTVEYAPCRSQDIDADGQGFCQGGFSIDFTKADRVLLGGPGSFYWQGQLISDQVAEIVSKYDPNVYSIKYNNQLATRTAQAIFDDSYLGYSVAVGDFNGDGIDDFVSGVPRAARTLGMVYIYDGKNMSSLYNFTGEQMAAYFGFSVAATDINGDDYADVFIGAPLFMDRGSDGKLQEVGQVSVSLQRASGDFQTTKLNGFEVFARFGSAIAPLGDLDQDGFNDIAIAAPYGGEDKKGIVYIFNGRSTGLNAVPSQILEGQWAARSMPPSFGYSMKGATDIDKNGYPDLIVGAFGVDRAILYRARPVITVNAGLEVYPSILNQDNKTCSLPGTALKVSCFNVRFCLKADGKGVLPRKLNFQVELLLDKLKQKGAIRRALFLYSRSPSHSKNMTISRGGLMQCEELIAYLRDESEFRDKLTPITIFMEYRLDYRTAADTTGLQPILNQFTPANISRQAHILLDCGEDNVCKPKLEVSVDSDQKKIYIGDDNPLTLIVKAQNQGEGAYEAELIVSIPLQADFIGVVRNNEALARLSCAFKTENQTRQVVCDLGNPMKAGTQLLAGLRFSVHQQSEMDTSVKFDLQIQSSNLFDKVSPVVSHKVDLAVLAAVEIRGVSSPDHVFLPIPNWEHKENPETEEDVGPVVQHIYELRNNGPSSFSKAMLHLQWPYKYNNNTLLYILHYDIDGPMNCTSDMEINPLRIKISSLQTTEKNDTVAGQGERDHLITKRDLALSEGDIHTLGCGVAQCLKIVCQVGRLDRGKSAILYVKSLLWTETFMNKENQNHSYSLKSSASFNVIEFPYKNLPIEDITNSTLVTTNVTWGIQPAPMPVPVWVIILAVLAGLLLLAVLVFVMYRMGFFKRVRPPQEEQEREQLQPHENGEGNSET
T1 chain 2: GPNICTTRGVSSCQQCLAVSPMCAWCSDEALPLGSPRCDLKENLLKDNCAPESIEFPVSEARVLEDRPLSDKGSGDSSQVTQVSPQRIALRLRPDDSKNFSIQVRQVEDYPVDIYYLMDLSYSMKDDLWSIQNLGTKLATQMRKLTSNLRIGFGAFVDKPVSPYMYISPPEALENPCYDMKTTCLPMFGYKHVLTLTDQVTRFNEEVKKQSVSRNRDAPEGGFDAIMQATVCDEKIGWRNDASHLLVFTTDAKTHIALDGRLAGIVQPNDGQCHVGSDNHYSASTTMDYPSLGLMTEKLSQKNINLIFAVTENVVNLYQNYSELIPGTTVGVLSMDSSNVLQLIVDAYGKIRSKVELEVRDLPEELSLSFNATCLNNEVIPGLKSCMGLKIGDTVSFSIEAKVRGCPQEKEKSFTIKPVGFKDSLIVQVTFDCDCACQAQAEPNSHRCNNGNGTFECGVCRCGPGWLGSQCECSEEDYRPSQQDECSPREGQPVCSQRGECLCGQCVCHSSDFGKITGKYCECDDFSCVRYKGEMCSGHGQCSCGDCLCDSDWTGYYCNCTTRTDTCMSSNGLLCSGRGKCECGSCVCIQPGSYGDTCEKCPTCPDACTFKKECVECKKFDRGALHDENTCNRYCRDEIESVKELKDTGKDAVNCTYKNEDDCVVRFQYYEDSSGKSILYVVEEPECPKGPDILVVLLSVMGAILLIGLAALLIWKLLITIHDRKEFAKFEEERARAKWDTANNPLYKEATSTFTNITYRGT
The experiment in a line: flow cytometry, competition with FITC-Echistatin on αvβ3-K562 cells. The note with it: remark: other sources report otherwise. For orientation: A flow cytometer gives signals particle by particle.

In test [2] the target is T2, αvβ3 integrin (human, UniProt P06756 31-1048; P05106 27-788).
T2 construct: whole, on cells; Same entry used for αvβ3-K562, U-87 MG and A375M cells; also called αvβ3-K562; αvβ3 transfected K562 cells
The experiment in a line: flow cytometry, competition with FITC-Echistatin on αvβ3-K562 cells; ++ = IC50 1-10 µM.

Test [3] has as its target T2, αvβ3 integrin. The experiment in a line: flow cytometry, competition with FITC-Echistatin on αvβ3-K562 cells; +++ = IC50 <1 µM.
For test [4], the target named is T2, αvβ3 integrin. The experiment in a line: flow cytometry, competition with FITC-Echistatin on αvβ3-K562 cells.
In test [5] the target is T2, αvβ3 integrin. The test is described as above. This is another data set of the same source.
For test [6], the target named is T2, αvβ3 integrin. The experiment in a line: flow cytometry, saturation binding of LXW7-Bio on U-87 MG cells.
The target in test [7] is T2, αvβ3 integrin. The experiment in a line: flow cytometry, saturation binding of LXW7-Bio on U-87 MG cells, streptavidin-PE, nonspecific binding with 100 µM LXW7 subtracted.
Test [8] addresses T2, αvβ3 integrin. The experiment in a line: flow cytometry, saturation binding of LXW7-Bio on A375M cells, streptavidin-PE, nonspecific binding with 100 µM LXW7 subtracted.
Test [9] has as its target T2, αvβ3 integrin. The experiment in a line: flow cytometry, competition with FITC-Echistatin on αvβ3-K562 cells. This is another data set of the same source.
For test [10], the target named is T2, αvβ3 integrin. The experiment in a line: flow cytometry, saturation binding of LXW7-Bio on αvβ3-K562 cells, streptavidin-PE, nonspecific binding with 100 µM LXW7 subtracted.
For test [11], the target named is T2, αvβ3 integrin. The experiment in a line: flow cytometry, saturation binding of LXW7-Bio on A375M cells.
Test [12] has as its target T2, αvβ3 integrin. The experiment in a line: flow cytometry, saturation binding of LXW7-Bio on αvβ3-K562 cells.
Test [13] concerns the target T2, αvβ3 integrin. The experiment in a line: flow cytometry, competition with biotinylated LXW7 on αvβ3-K562 cells (internal reference).

Numbered stars: 1 amine (or outer) side, 2 acyl side, 3 side chain; on linkers, the order of the positions; unused ones are H or OH. Bridge positions count the residues as written; N and C are the ends. Square brackets hold non-standard residues; d marks the D form. Primed or numbered codes have the meaning given here. Side chains are listed from the residue outwards. Ends that are not written are not given here. Ebes = 2,2'-ethylenedioxy bis(ethylamine) monosuccinamide; Suc = O=C(CCC(=O)[*:2])[*:1]; Ebes″ = not defined here

B1: cyclo (RGDfK)-Bio (peptide)
peptide: cyclo(RGD[dF]K([Suc-Ebes″-Lys(biotin)NH2]))
modifications: reading uncertain
One may read the IC50 as the concentration needed to halve the response being measured. B1 displayed an IC50 in test [1] of 1.37 µM.

B2: LXW2 (peptide)
peptide: [dC]GRGD[dD][dF][dC]-NH2
modifications: disulfide 1-8; N-terminus assumed
SMILES: N=C(N)NCCC[C@@H]1NC(=O)CNC(=O)[C@H](N)CSSC[C@H](C(N)=O)NC(=O)[C@@H](Cc2ccccc2)NC(=O)[C@@H](CC(=O)O)NC(=O)[C@H](CC(=O)O)NC(=O)CNC1=O
B2 yielded an IC50 in test [2] of 1 to 10 µM.

B3: LXW3 (peptide)
peptide: [dC]GRGD[dS][dE][dC]-NH2
modifications: disulfide 1-8; N-terminus assumed
SMILES: N=C(N)NCCC[C@@H]1NC(=O)CNC(=O)[C@H](N)CSSC[C@H](C(N)=O)NC(=O)[C@@H](CCC(=O)O)NC(=O)[C@@H](CO)NC(=O)[C@H](CC(=O)O)NC(=O)CNC1=O
In [3], B3 registered an IC50 of less than 1 µM.

B4: cyclo (RGDfE)-Bio (peptide)
peptide: cyclo(RGD[dF]E([Ebes-Ebes-Lys(biotin) amide]))
notes: also called Biotinylated Cyclo(RGDfE)
Take B4: the “fold decrease in affinity on biotinylation (against the non-biotinylated form)” value in [4] was 2 to 8 fold. In [5], this molecule yielded an IC50 of 4.7 µM.

B5: cyclo(RGDfE) (peptide)
peptide: cyclo(RGD[dF]E)
SMILES: N=C(N)NCCC[C@@H]1NC(=O)[C@H](CCC(=O)O)NC(=O)[C@@H](Cc2ccccc2)NC(=O)[C@H](CC(=O)O)NC(=O)CNC1=O
With B5, the IC50 in test [5] came to 0.6 µM.

B6: Biotinylated cyclo(cGRGDdvc) (peptide)
peptide: [dC]GRGD[dD][dV][dC]-{Ebes-Ebes-K(biotin)-NH2}
modifications: disulfide 1-8
Usually Kd stands for the constant that tells how readily two partners part at equilibrium. B6: the Bmax turned out to be 86 A.U in test [6], 71 A.U in test [11] and 1390 A.U in test [12]. Also, the Kd came out at 0.072 µM in test [7], 0.089 µM in [8] and 0.076 µM in [10]. For the same molecule, the half-inhibitory concentration (IC50) in [9] amounted to 0.62 µM.

B7: LXW5 (peptide)
peptide: [dC]GRGD[dD][dS][dC]-NH2
modifications: disulfide 1-8; N-terminus assumed
SMILES: N=C(N)NCCC[C@@H]1NC(=O)CNC(=O)[C@H](N)CSSC[C@H](C(N)=O)NC(=O)[C@@H](CO)NC(=O)[C@@H](CC(=O)O)NC(=O)[C@H](CC(=O)O)NC(=O)CNC1=O
Consider B7, for which, in [2], the IC50 was 1 to 10 µM.

B8: LXW7 (peptide)
peptide: [dC]GRGD[dD][dV][dC]-NH2
modifications: disulfide 1-8; N-terminus assumed
SMILES: CC(C)[C@H]1NC(=O)[C@@H](CC(=O)O)NC(=O)[C@H](CC(=O)O)NC(=O)CNC(=O)[C@H](CCCNC(=N)N)NC(=O)CNC(=O)[C@H](N)CSSC[C@H](C(N)=O)NC1=O
For B8, the 50% inhibitory concentration (IC50) is 0.68 µM in test [9], less than 1 µM in [3] and 0.59 µM in [13].

B9: LXW1 (peptide)
peptide: [dC]GRGD[dS][dF][dC]-NH2
modifications: disulfide 1-8; N-terminus assumed
SMILES: N=C(N)NCCC[C@@H]1NC(=O)CNC(=O)[C@H](N)CSSC[C@H](C(N)=O)NC(=O)[C@@H](Cc2ccccc2)NC(=O)[C@@H](CO)NC(=O)[C@H](CC(=O)O)NC(=O)CNC1=O
On to B9, for which the half-inhibitory concentration (IC50) in [2] lay within 1 to 10 µM.
